Results published in publication doi:10.1101/2021.10.12.463902 (bioRxiv, 2021).
Where two headings read alike, the source gives them in different places.

B1: human Eg5 kinesin-5 mini-tetramer with tail (hMBXt), TMR labelled (other, Homo sapiens | Drosophila melanogaster, UniProt P52732 1-374, looked up)
chain: MASQPNSSAKKKEEKGKNIQVVVRVRPFNLAERKASAHSIVESDPVRKEVSVRTGGLADKSSRKTYTFDMVFGASTKQIDVYRSVVAPILDEVIMGYNATIFAYGQTGTGKTFTMEGERSPNEEYTWEEDPLAGIIPRTLHQIFEKLTDNGTEFSVKVSLLEIYNEELFDLLNPSSDVSERLQMFDDPRNKRGVIIKGLEEITVHNKDEVYQILEKGAAKRTTAATLMNAYSSRSHSVFSVTIHMKETTIDGEELVKIGKLNLVDLAGSENIGRSGAVDKRAREAGNINQSLLTLGRVITALVERTPHVPYRESKLTRILQDSLGGRTRTSIIATISPASLNLEETLSTLEYAHRAKCILNKPEVNQKLTKKALAQSLQDQTNLHNKLIGEVMKISDQHSQAFVAKLMEQMQQQQLLMSKEIQTNLQVIEENNQRHKAMLDSMQEKFATIIDSSLQSVEEHAKQMHKKLEQLGAMSLPDAEELQNLQEELANERALAQQEDALLESMMMQMEQIKNLRSKNSISMSVHLNKMEESRLTRNHRIDDIKSGIQDYQKLGIEASQSAQAELTSQMEAGMLLEQDLKLDIPTGTTPQRKSYLYPSTLVRTEPREHLLDQLKRKQPELLMMLNSSENNKEETIPDVDVEEAVLGQYTEEPLSQEPSVDAGVDSSSIGGVPFFQHKKSHGKDKENRGINTLERSKVEETTEHLVTKSRLPLRAQINL
modifications: Tetra-methyl Rhodamine (TMR) on the single reactive cysteine in the neck linker (N358C)

Experiments:
[1] = molecular target: microtubules of porcine tubulin (GMPCPP or Paclitaxel stabilised, biotin and Alexa-Fluor-633 labelled) (porcine) (UniProt P02550); test: single-molecule TIRF motility assay on microtubules
[2] = molecular target: microtubules of porcine tubulin (GMPCPP or Paclitaxel stabilised, biotin and Alexa-Fluor-633 labelled) (porcine) (UniProt P02550); test: as above; remark: listed apart in the source
[3] = molecular target: Drosophila melanogaster KLP61F BASS-XL (extended Bipolar assembly domain minifilament) (Drosophila melanogaster) (UniProt P46863); test: crystal structure
[4] = molecular target: Taxol-stabilized microtubules (unlabeled, Alexa 647-labelled and biotinylated tubulin 50:2:1.5) (not stated (Pork or Bovine brains)) (UniProt P02550); test: single-molecule TIRF motility assay on microtubules
[5] = molecular target: the molecule itself; test: as above

Chain of Taxol-stabilized microtubules (unlabeled, Alexa 647-labelled and biotinylated tubulin 50:2:1.5) (not stated (Pork or Bovine brains)) (P02550 whole entry, looked up): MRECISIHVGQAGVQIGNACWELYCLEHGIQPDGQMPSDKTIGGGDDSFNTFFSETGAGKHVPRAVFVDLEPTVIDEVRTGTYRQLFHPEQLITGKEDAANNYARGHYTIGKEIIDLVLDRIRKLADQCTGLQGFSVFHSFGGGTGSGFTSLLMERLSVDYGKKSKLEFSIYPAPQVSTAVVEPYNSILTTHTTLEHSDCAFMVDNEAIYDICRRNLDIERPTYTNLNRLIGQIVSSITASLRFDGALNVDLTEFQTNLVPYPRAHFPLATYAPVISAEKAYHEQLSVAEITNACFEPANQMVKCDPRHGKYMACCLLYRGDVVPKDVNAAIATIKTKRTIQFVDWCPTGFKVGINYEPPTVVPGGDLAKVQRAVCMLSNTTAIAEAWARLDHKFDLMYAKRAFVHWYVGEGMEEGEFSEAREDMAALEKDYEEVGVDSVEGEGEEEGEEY
Chain of microtubules of porcine tubulin (GMPCPP or Paclitaxel stabilised, biotin and Alexa-Fluor-633 labelled) (porcine) (P02550 whole entry, looked up, the tested form may be a part): as the sequence (P02550 whole entry, looked up) above

| Molecule | dwell time at MT plus ends, longer lifetime population [4] [s] | dwell time at MT plus ends, shorter lifetime population [4] [s] | also measured |
| --- | --- | --- | --- |
| Drosophila KLP61F kinesin-5 mini-tetramer without tail (kMBX), neon green tagged (from UniProt P46863 1-369; P46863 597-833) |  |  | dwell time at MT plus ends [1]: 78 s; dwell time at MT plus ends [2]: 25 s |
| Drosophila melanogaster KLP61F BASS-XL (extended Bipolar assembly domain minifilament) (from UniProt P46863 620-804) (domain or fragment) |  |  | stoichiometry N [3]: 4 |
| human Eg5 kinesin-5 mini-tetramer with tail (hMBXt), TMR labelled (from UniProt P52732 1-374; P46863 597-799; P52732 913-1056) | 484 | 16.4 |  |
| human Eg5 kinesin-5 mini-tetramer without tail (hMBX), TMR labelled (from UniProt P52732 1-374; P46863 597-799) | 140 | 14.6 |  |
| B1 |  |  | binding result [5]: binds |
